Reference: the DeepSol protein solubility set

Assay: soluble on expression in E. coli; label from the status in PepcDB or PDB records

| Sequence | soluble on expression in E. coli |
| --- | --- |
| MANSETSLQARLWKTLSQSPDVRLWRNNVGTCKAADGRFVRFGLCPGSSDLIGLTRVTITPDMVGQTIALFTAIEVKTPTGRVTPEQQSFIDFVQRSGGRAGVARSMQDANKIISGEGHVLEHHHHHH | not soluble |
| GPGSMSRTQTSSKSVPKNIAVYCRVRPPVPNEKGHTFQNISYDDSDSRAIAVARKSGTKALEKTYLFNRVFRPTATQKDVYETFAKGAVDAAFDGQHGVLFVYGQTGSGKTFTISNDEPNNEGVLQRSMRDIWNRIASDTANDYSCSVSYVQLYNEILTDLLDDAKGKVRIQMGSEGRGDVVMVSDSTGMAIEREVKDYKSTMACFQVGLARKEMASTSMNSTSSRSHTIFTLNIVKAKKVVAVTVGTEAEGPTIALEGRLVLCDLAGSERVSKTHAEGKTLDEATHINRSLLTLGKVVTALTDNAQHAPFRESKLTRILQYSLMGNGNTSIIVNISPSDDNTEESLSAILFGQRASQIKQDAKRHEVLDYKALYMQLMAELDNKNDKTLEEALEEERGVYEERISALDEEMKLLSDENAMLRNENKQLRQYVPADRLKLIDETPSSGVSGANGEVVSGGWAKVNQDLRKLVQQRDERLKVISDERVRLALVVAEEKRKCFQLAQKMRSFAMRYKMEREQSTQRQEELCTELATLKGTDYLSAVGSFDATASPGSPNYPRENEEFNDAESAQAQIRALRAERMELMVYQAKAANAIRKLVKERDAAQRKVA | soluble |
| MSLTECFLSDQEIRKLNRDLRILIAANGTLTRVLNIVADDEVIVQIVKQRIHDVSPKLSEFEQLGQVGVGRVLQRYIILKGRNSEHLFVAAESLIAIDRLPAAIITRLTQTNDPLGEVMAASHIETFKEEAKVWVGDLPGWLALHGYQNSRKRAVARRYRVISGGQPIMVVTEHFLRSVFRDAPHEEPDRWQFSNAITLAREGHHHHHH | soluble |
| MGSDKIHHHHHHMKNYALLNGAYDNKTMYDFKPVRADNTYLYDSQNRKYLDLRSGLWNTSLGYIDSLYQRVSKRFDQVLNKKLPYLDIHSFQHDIYDEVAQKVLELTGHAFKRVLYTNSGSENTELALKIADYTNKKGENNRILAFKDSYHGTFFGGVSVSGIDQEINSSFYPKYGEVTFIDYPKSAEQEKNVLDYIANVASFYDVMMIEPILASAGIYFASTDFFNALLKLLRKNQVLIVFDEVATGFFKTGKPFYFQQLSEKPDILCLSKAINNGITSFGCVCVNEEVDAKLQKNPKTMEHFSTQNGNLLGLESANIVLDYYLKSRDVIKGKVKDISDSISNVLDSQNVFYRNQGIMTAIRTESNQSLQLMKSLEKLGILTYLYVNEEEEGLSIMPPININLNVLEKALKLISKKIESQNSF | not soluble |
| MSTMGNEASYPAEMCSHFDNDEIKRLGRRFKKLDLDKSGSLSVEEFMSLPELRHNPLVRRVIDVFDTDGDGEVDFKEFILGTSQFSVKGDEEQKLRFAFSIYDMDKDGYISNGELFQVLKMMVGNNLTDWQLQQLVDKTIIILDKDGDGKISFEEFSAVVRDLEIHKKLVLIV | soluble |
| MKTSSYLLKAGVDYPTNWDEFVDWFHDEQSCTSYLYALRWPNGFICPSCSSHQSPYQLSNGKLKCHACRFQCSVTSSTLFDKTRTPMKSWFAAVWFITNQKNGVSALGVQRLLGLGSYQTAWSLMHKLRYAMVDPERDKLSGIVEVDETLIGGVIPKSSIKNQQGKRKAIVLVAVELLSPSGFGRIRLRQVESATKEHIHQFIQDVIEPGSTICSDGSQAYKQIDKKGYKHNRMVHLGSSVPAHETMAGVHRVSSLCKRWLLGTYQGAVKAKQLDYYLDEFTFRFNRRKSDSRGLLFYRLLEQAVRLEHHHHHH | soluble |
| MSLSRSLDSARSFLERLEARGGREGAVLAGEFSDIQACSAAWKADGVCSTVAGSRPENVRKNRYKDVLPYDQTRVILSLLQEEGHSDYINGNFIRGVDGSLAYIATQGPLPHTLLDFWRLVWEFGVKVILMACREIENGRKRCERYWAQEQEPLQTGLFCITLIKEKWLNEDIMLRTLKVTFQKESRSVYQLQYMSWPDRGVPSSPDHMLAMVEEARRLQGSGPEPLCVHCSAGCGRTGVLCTVDYVRQLLLTQMIPPDFSLFDVVLKMRKQRPAAVQTEEQYRFLYHTVAQMFCSTLQNASEGHHHHHH | soluble |
| MGSDKIHHHHHHMITVNDMSMQFSDRKLYSDVNLKFTPGNCYGIIGANGAGKSTFLKILEGKLQPTSGNVSISPNERMSSLNQDHYAFEEFTVMNTVIQGYKKLYEVMQAKDALYAKADFTEEDGMKAANLEAEFAEMDGWNAEAEASQLLQQLGIDESLHDSKMSELTEGQRIKVLLGQALFGKPDILILDEPTNGLDPKSISWLEDFLADFPNTVIVVSHDRHFLNSVCTMMCDVDFGKIELFVGNYDFWMESSALAKRLRENANAKKEEQIKELQEFVARFSANASKSKQATSRKKQLDKITLDDIKPSSRKYPFIRFEPARELGNDLVRVDKVSKSIDGVKILDNITFTVRPGEKAAILSQNDLATTVLMQILAGEMEPDSGSVTWGQTTERSYIPRDINSYFEDDRFDILEWLRQYAPKEESDNTFLRGFLGKMLFSGEDVLKNVTKLSGGEKVRCMISKTMLSKANVLILDDPTNHLDLESITALNEGLTSYKSSIIMTSHDHEFIQTIADHIIEVSDKGSVDRAETTYDEFLNHDAIQEQVSKLY | not soluble |
| QQMQAESGFVQHVGFKCDNCGIEPIQGVRWHCQDCPPEMSLDFCDSCSDCLHETDIHKEDHQLEPIYRS | soluble |
| MLYPDTGRRSLVQYLSGSTGEPDGRTENRRMFMDTIGEAVLRSCQPYVRTVFNSVVVLNIMRTTHIVSMDVAHLANISASGQMFNYSLSFLGMKHVILMLWRCW | not soluble |
| MSDALVWQVIRNNSAFLRTQRGIGKRFSTEKFNLKKVNSPKYSGLANKHAIDVSAAAKGVVVSTKNEKGRPAKAVTTSTLSKTPVASVRRLAKNAGFNKFNKLAQRRAAAIVRSQVKKAKVQKTDA | not soluble |
| SLSKRLLSLASLALLFGCAQQPNDRAQQYQQQTFPHILNRADVVESNKPRDYTEFSKQSELVVQGSASMAKIYRPLYEQLNEWVLQSGDPATLAQFGIQAAQLGGGDKQGNVLFTGYFSPVIELRHQPDSVFKYPVYGLPKCNKNCPTRAEIYQGALDGQGLELGYAENLIDPFIMEVQGSGFVHFGDDDTLEYFAYAGKNNKAYVSIGKVLIERGLVEREKMSLKAIKDWVLANDEATVRELLEENPSFVFFKPSAAAPVKGSAGIPLLPMASVAGDRSILPMGTPILAEVPLLNADGTWSGAHQLRLLIVLDTGGAVKQNHLDLYHGMGPRAGLEAGHYKHFGRVWKLGLENSPTQAPWALPPEKQQ | not soluble |
| MFDILMYLFENYVHSEVELLVDEDELTKELTRAGFHQSEILKALTWLERLAELQEGDKPYLCNHDQHSFRIYTKDEMEKLDVECRGFLLFLEQVKVLNVETREMVIDRVMELDEPALILEDLKWVILMVLFNAPGHESAYEQMEDLIFEQPEEGRLHS | soluble |
| MERLQKVIARAGIASRRKAEELILQGRVKVNGRVVKELGVKVGPRDDVEVDGIPIEREEPVYYLLYKPRGVISSVKDDRGRKVVTDFFKDLDKRIYPIGRLDYDTSGLLLLTNDGDFANLLMHPRYEIEKVYIAKVKGIPTHEQLKRLEQGVQLEDGMTAPAKVKLLSADRKKGTAIVEIRIHEGRNRQVRRMFEAIGCEVLKLKRERYAFLDLKGLRPGEYRELTPHEVKLLRVLAQSGGRK | soluble |
| MSDSDSVGESSHPKKTAPKKEKASPKNKKDDANESMVMTEEDRNVFTSIDKKGGGSKQMAIVDIYQKKSQLEHILLRPDSYIGSIEHTEKKPMWVYNMEDSKLEQRDISYVPGLFKIYDEILVNAADNKQRDRKMNTIRVTINKAKNEISVYNNGKGIPVTQHKVEKVFVPELIFGSLLTSSNFVGNQKAMIGGRNGYGAKLCNIFSTKFTCETSSRVYKSAFKQTWINNMTRDEEPTIVPSTDEDFTKITFSPDLAKFKMKELDDDICHLMARRAYDVAATCKGVDVILNGEMISVKGFEDYVKMYTSQITFEGEPLKTVYEQIGNRWQVALALSDVGFQQISFANNVSTTKGGRHVDHVVDQMIARLKGSIKQELSKDVDPFMIENHLWVFVNCLIEWPTFDSQTKEMMTLRHDRFGSTCALSKKFCKTALQIGLIRQISREIGVDIRENLVQKASESSPIKCIPKLEDAKEAGTKTSERCTLIVTEGDSAKTLAISGLSVVGRDKFGVFPLRGKLLNVRDASVKQIAENAEVNAMIKILGLQRDLKYEFDDEFRTLRYGKLMIMADQDQDGSHIKGLIISFLHHFWPSLIQRNFVEEFITPIVKATKGKEEVSFYSLPEYSEWRTNTDNWKSYKIKYYKGLGTSTAKEAKE | not soluble |
| MGESLDRCIDDINRAVDSMSTLYFKPPGIFHNAILQGASNKASIRKDITRLIKDCNHDEAYLLFKVNPEKQSVSRRDGKEGVFDYVIKRDTDMKRNRRLGRPGEKPIIHVPKEVYLNKDRLDLNNKRRRTATTSGGGLNGFIFDTDLIGSSVISNSSSGTFKALSAVFKDDPQIQRLLYALENGSVLMEEESNNQRRKTIFVEDFPTDLILKVMAEVTDLWPLTEFKQDYDQLYHNYEQLSSKLRFIKKEVLLQDDRLKTMSQYHPSSSHDVAKIIRKEKDEIRRLEMEIANLQE | not soluble |
| GPGSMDAVRAMDYTDIYLRPRKKESVSPQEPLRSAQVDSAAESRVEWMLKGAFSVQQLLDRVEELSARVCMFDEKMVNLTKLVKLAQGIQEEKEADIRFQQQELLSRLKRLEQACARLEDMETFKQFIISKVQETLEDAHQAFLSDLAKIRADGEEQAARTKQRIENTVSDVRRDVEERIASLWGEAEQKDLSRQEAQDTLREKLRLVESSLRDLEMSVGRDYSRVPPLQEKIDGITQSLSSLEQKVDKTAGTVVTLGNEAKQARALLMEEIETTRQWVTRNLQRVKQHVEVISSDVEQLHNGRADLSARISRISCQADMECKKLRSQLSQKALVADALDNLVQKEFYKVEDVALRHQSLRTEVGAVKDV | not soluble |
| VKAKKQETAATMKDVALKAKVSTATVSRALMNPDKVSQATRNRVEKAAREVGYLPQPMGRNVKRNESRTILVIVPDICDPFFSEIIRGIEVTAANHGYLVLIGDCAHQNQQEKTFIDLIITKQIDGMLLLGSRLPFDASIEEQRNLPPMVMANEFAPELELPTVHIDNLTAAFDAVNYLYEQGHKRIGCIAGPEEMPLCHYRLQGYVQALRRCGIMVDPQYIARGDFTFEAGSKAMQQLLDLPQPPTAVFCHSDVMALGALSQAKRQGLKVPEDLSIIGFDNIDLTQFCDPPLTTIAQPRYEIGREAMLLLLDQMQGQHVGSGSRLMDCELIIRGSTRALP | soluble |
| MKLTILRLEHFSAQDQIDLGKIWPEYSASSLSVDETHRIYAARFNERLLGAVRVTLSGTQGALDSLRVREITRRRGVGQYLVEEVIRDNPNVSSWWMADVGVEDRSVMAAFMQALGFTAQHDGWEKR | not soluble |
| MSLDNFIAGLPKLELHLHIEGSLEPELMFALGQRNGVALPWPDVASVRAAYEFDCLQSFLDLYYLGASVLITEQDFFDLTWAYLERCAADKVVHVEIFFDPQTHTARGVPFATVLGGIERALQRGEWEFGISWRLIMSFLRHLSEEDAFATLAEATPFLSRIHGIGLDSGEKGNPPSKFARVFARCRELGLPVVAHAGEEGPADYIWQAIRELEVRRIDHGVRCVDDPDLLRYLADTRLPLTVCPLSNTRLKVFDQMAHHNVLALLEQGLCVTINSDDPAYFGGYMNANFHALAHELGASMNQLCRLSLNAVEASWLSLADKARLTREGHHHHHH | soluble |
